According to patent US20110059095A1 (Regeneron, published 2011):
Each block holds one binder with its values, some of them ahead of it.

Assays:
[1] = molecular target: T1, C-terminal biotinylated human PAR-2 peptide SEQ ID NO:872 (Gly-35 to Ala) (human, not fully specified; C-terminal biotin (K-B)); experiment: BLI Exp1
T1 construct: alanine-scan mutant
T1 peptide: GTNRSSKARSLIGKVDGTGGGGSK
Experimental: (§1) In order to more particularly identify the amino acids of PAR-2 with which the PAR-2 antibodies interact, an alanine scanning study was carried out using peptides comprising the activating PAR-2 protease cleavage site.
(§2) The ability of each peptide mutant to bind to PAR-2 antibodies was measured using biolayer interferometry (Octet Red; ForteBio). Each peptide (2.5 μg/ml) was captured on streptavidin coated biosensor tips (Octet SA sensor) for 10 seconds. To measure binding and dissociation between each peptide and PAR-2 antibody, the peptide-coated biosensors were contacted with 200 nM solutions of PAR-2 antibodies for 5 minutes (binding) followed by transfer to buffer with no antibody for 10 min (dissociation). […] The results are expressed as percent binding and percent T_{1/2} relative to WT peptide (Tables 24-28).

[2] = molecular target: T2, C-terminal biotinylated human PAR-2 peptide SEQ ID NO:875 (Leu-38 to Ala) (human, not fully specified; C-terminal biotin (K-B)); experiment: BLI Exp1
T2 construct: alanine-scan mutant
T2 peptide: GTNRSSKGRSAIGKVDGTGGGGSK
Experimental: as §1, §2

[3] = molecular target: T3, C-terminal biotinylated human PAR-2 peptide SEQ ID NO:873 (Arg-36 to Ala) (human, not fully specified; C-terminal biotin (K-B)); experiment: BLI Exp1
T3 construct: alanine-scan mutant
T3 peptide: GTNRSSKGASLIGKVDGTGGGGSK
Experimental: as §1, §2

[4] = molecular target: T4, C-terminal biotinylated human PAR-2 peptide SEQ ID NO:878 (Lys-41 to Ala) (human, not fully specified; C-terminal biotin (K-B)); experiment: BLI Exp1
T4 construct: alanine-scan mutant
T4 peptide: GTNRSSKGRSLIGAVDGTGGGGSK
Experimental: as §1, §2

[5] = molecular target: T5, C-terminal biotinylated human PAR-2 peptide SEQ ID NO:876 (Ile-39 to Ala) (human, not fully specified; C-terminal biotin (K-B)); experiment: BLI Exp1
T5 construct: alanine-scan mutant
T5 peptide: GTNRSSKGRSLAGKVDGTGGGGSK
Experimental: as §1, §2

[6] = molecular target: T1, C-terminal biotinylated human PAR-2 …; experiment: alanine scan by biolayer interferometry (Octet Red): C-terminal biotin peptide on streptavidin tips, 200 nM antibody; T1/2 relative to wild-type peptide SEQ ID NO:871
Experimental: as §1, §2

[7] = molecular target: T2, C-terminal biotinylated human PAR-2 …; experiment: as above
Experimental: as §1, §2

[8] = molecular target: T6, C-terminal biotinylated human PAR-2 peptide SEQ ID NO:880 (Asp-43 to Ala) (human, not fully specified; C-terminal biotin (K-B)); experiment: as above
T6 construct: alanine-scan mutant
T6 peptide: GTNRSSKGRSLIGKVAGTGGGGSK
Experimental: as §1, §2

[9] = molecular target: T7, C-terminal biotinylated human PAR-2 peptide SEQ ID NO:874 (Ser-37 to Ala) (human, not fully specified; C-terminal biotin (K-B)); experiment: as above
T7 construct: alanine-scan mutant
T7 peptide: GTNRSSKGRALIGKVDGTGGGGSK
Experimental: as §1, §2

[10] = molecular target: T8, C-terminal biotinylated human PAR-2 peptide SEQ ID NO:882 (Thr-45 to Ala) (human, not fully specified; C-terminal biotin (K-B)); experiment: as above
T8 construct: alanine-scan mutant
T8 peptide: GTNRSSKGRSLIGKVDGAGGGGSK
Experimental: as §1, §2

[11] = molecular target: T3, C-terminal biotinylated human PAR-2 …; experiment: as above
Experimental: as §1, §2

[12] = molecular target: T9, C-terminal biotinylated human PAR-2 peptide SEQ ID NO:879 (Val-42 to Ala) (human, not fully specified; C-terminal biotin (K-B)); experiment: as above
T9 construct: alanine-scan mutant
T9 peptide: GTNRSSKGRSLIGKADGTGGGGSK
Experimental: as §1, §2

[13] = molecular target: T10, C-terminal biotinylated human PAR-2 peptide SEQ ID NO:877 (Gly-40 to Ala) (human, not fully specified; C-terminal biotin (K-B)); experiment: as above
T10 construct: alanine-scan mutant
T10 peptide: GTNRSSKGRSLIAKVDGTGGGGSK
Experimental: as §1, §2

[14] = molecular target: T11, C-terminal biotinylated human PAR-2 peptide SEQ ID NO:881 (Gly-44 to Ala) (human, not fully specified; C-terminal biotin (K-B)); experiment: as above
T11 construct: alanine-scan mutant
T11 peptide: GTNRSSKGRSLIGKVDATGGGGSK
Experimental: as §1, §2

[15] = molecular target: T4, C-terminal biotinylated human PAR-2 …; experiment: as above
Experimental: as §1, §2

[16] = molecular target: T5, C-terminal biotinylated human PAR-2 …; experiment: as above
Experimental: as §1, §2

% Rel Binding [1]: 78%
% Rel T1/2 [1]: 118%
% Rel Binding [2]: 9%
% Rel T1/2 [2]: 0.4%
% Rel Binding [3]: 87%
% Rel T1/2 [3]: 122%
% Rel Binding [4]: 113%
% Rel T1/2 [4]: 63%
% Rel Binding [5]: 8%
% Rel T1/2 [5]: 0.2%
percent of T1/2 relative to wild-type peptide (average of duplicate experiments) [6]: 118%
percent of T1/2 relative to wild-type peptide (average of duplicate experiments) [7]: 0.2%
percent of T1/2 relative to wild-type peptide (average of duplicate experiments) [8]: 20%
percent of T1/2 relative to wild-type peptide (average of duplicate experiments) [9]: 5%
percent of T1/2 relative to wild-type peptide (average of duplicate experiments) [10]: 112%
percent of T1/2 relative to wild-type peptide (average of duplicate experiments) [11]: 106%
percent of T1/2 relative to wild-type peptide (average of duplicate experiments) [12]: 1%
percent of T1/2 relative to wild-type peptide (average of duplicate experiments) [13]: 24%
percent of T1/2 relative to wild-type peptide (average of duplicate experiments) [14]: 121%
percent of T1/2 relative to wild-type peptide (average of duplicate experiments) [15]: 56%
percent of T1/2 relative to wild-type peptide (average of duplicate experiments) [16]: 0.1%
B1: H4H581P (antibody, human IgG4, V domains shown)
VH: QVQLVESGGGVVQPGRSLRLSCVASGFTFSRYGIHWVRQAPGKGLEWVIVISYDGINKYYADSVKGRFTISRDNSKNTVYLQMNSLRAEDTAVYYCAKGDFWSGYFDYWGQGTLVTVSS
VL: DIVMTQTPLSSPVTLGQPASISCRSSQSLVHSDGNTYLSWLHQRPGQPPRLLIYKISNRFSGVPDRFSGSGAGTDFTLQISRVEAEDVGIYYCMQATQFPTFGGGTKVEIK
notes: also called mAb H4H581P; H1H581P variable regions

% Rel Binding [1]: 122%
% Rel T1/2 [1]: 100%
% Rel Binding [2]: 127%
% Rel T1/2 [2]: 100%
% Rel Binding [3]: 208%
% Rel T1/2 [3]: 100%
% Rel Binding [4]: 217%
% Rel T1/2 [4]: 108%
% Rel Binding [5]: 92%
% Rel T1/2 [5]: 36%
percent of T1/2 relative to wild-type peptide (average of duplicate experiments) [6]: 177%
percent of T1/2 relative to wild-type peptide (average of duplicate experiments) [7]: 71%
percent of T1/2 relative to wild-type peptide (average of duplicate experiments) [8]: 4.5%
percent of T1/2 relative to wild-type peptide (average of duplicate experiments) [9]: 85%
percent of T1/2 relative to wild-type peptide (average of duplicate experiments) [10]: 64%
percent of T1/2 relative to wild-type peptide (average of duplicate experiments) [11]: 140%
percent of T1/2 relative to wild-type peptide (average of duplicate experiments) [12]: 0.5%
percent of T1/2 relative to wild-type peptide (average of duplicate experiments) [13]: 0.5%
percent of T1/2 relative to wild-type peptide (average of duplicate experiments) [14]: 1%
percent of T1/2 relative to wild-type peptide (average of duplicate experiments) [15]: 84%
percent of T1/2 relative to wild-type peptide (average of duplicate experiments) [16]: 22%
B2: H4H588N (antibody, human IgG4, V domains shown)
VH: EVQLLESGGGLVQPGGSLRLSCAASGFTFSSYAMTWVRQAPGKGLYWVSAISGGRGSAYYADSVKGRFTISRDNSKNTLYLQMNSLRAEDTAVYYCAKEGDSGYDLAYWGRGTLVTVSS
VL: DIQMTQSPSSLSASVGDRVTITCRARQGISNNLAWLQQKPGKAPKSLIYAASSLQSGIPSKFSGSGSGTYFTLTISSLQPEDFATYYCQQYKSSPLTFGGGTKVEIK
notes: also called H2M588N variable regions
